How the values were obtained:
[1] = molecular target: TAG-72 antigen on a human breast carcinoma extract (human); experiment: competition RIA against 125I-labeled CC49 IgG, human breast carcinoma extract

Substance: trypsin (enzyme)
- half-life (t1/2) of intact sFv, reverse phase HPLC (CC49/212 single-chain Fv): 3.26 h

Substance: CC49/218 single-chain Fv (scFv)
- fold lower affinity than the CC49/212 sFv [1]: 4 fold

Substance: subtilisin BPN' (Type XXVII protease, Sigma) (from UniProt P00782) (enzyme)
- half-life (t1/2) of intact sFv, reverse phase HPLC (CC49/212 single-chain Fv): 2.05 h

Source: patent US5990275
